Measured values reported in PMC12733253, “NFE2 Truncation Mutants Protect Wild-Type NFE2 from ITCH-Dependent Degradation” (International Journal of Molecular Sciences, 2025).

Target: itchy E3 ubiquitin protein ligase (ITCH), wild type, MYC-tagged (UniProt Q96J02-2 1-862)
Assay: cell-based or functional assay

itchy E3 ubiquitin protein ligase (ITCH), wild type, MYC-tagged, sequence (Q96J02 other isoform, or with tags, fused parts or gaps): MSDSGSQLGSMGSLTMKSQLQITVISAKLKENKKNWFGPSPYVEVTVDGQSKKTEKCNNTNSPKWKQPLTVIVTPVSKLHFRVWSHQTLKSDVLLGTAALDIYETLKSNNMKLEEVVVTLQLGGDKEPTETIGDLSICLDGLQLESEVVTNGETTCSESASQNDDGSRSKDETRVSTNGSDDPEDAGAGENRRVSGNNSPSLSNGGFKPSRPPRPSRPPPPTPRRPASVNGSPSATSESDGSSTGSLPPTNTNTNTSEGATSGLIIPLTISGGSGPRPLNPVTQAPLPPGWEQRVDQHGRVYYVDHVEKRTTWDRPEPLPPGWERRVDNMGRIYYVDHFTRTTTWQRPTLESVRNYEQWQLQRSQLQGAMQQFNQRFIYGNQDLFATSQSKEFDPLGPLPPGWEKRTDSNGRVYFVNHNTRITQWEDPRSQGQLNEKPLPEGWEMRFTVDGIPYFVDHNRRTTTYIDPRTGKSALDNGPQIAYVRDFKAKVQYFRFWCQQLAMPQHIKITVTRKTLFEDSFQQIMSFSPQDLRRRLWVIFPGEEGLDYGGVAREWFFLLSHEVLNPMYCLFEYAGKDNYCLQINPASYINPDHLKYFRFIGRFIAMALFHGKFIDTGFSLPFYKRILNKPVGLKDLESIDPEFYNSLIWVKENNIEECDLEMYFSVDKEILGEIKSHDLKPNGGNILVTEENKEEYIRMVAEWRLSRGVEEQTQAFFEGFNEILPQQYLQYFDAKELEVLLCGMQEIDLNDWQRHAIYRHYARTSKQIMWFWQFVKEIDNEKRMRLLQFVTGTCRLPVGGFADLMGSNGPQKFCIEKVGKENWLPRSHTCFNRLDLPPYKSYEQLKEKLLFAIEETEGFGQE

NFE2 half-life in a cycloheximide chase, HEK-293T co-transfected with wt NFE2 and wt ITCH (approximately 3.5 h with empty vector; 6.5 h with inactive ITCH-C830A): ~2 h
B1: wild-type nuclear factor erythroid 2 (NFE2), HA-tagged (natural protein, human, UniProt Q16621 1-373, looked up)
chain: MSPCPPQQSRNRVIQLSTSELGEMELTWQEIMSITELQGLNAPSEPSFEPQAPAPYLGPPPPTTYCPCSIHPDSGFPLPPPPYELPASTSHVPDPPYSYGNMAIPVSKPLSLSGLLSEPLQDPLALLDIGLPAGPPKPQEDPESDSGLSLNYSDAESLELEGTEAGRRRSEYVEMYPVEYPYSLMPNSLAHSNYTLPAAETPLALEPSSGPVRAKPTARGEAGSRDERRALAMKIPFPTDKIVNLPVDDFNELLARYPLTESQLALVRDIRRRGKNKVAAQNCRKRKLETIVQLERELERLTNERERLLRARGEADRTLEVMRQQLTELYRDIFQHLRDESGNSYSPEEYALQQAADGTIFLVPRGTKMEATD
